Source: patent US20230287146A1 (LAMKAP BIO GAMMA, published 2023)

Key:
[1] = target: T1, human CD28 (human, UniProt P10747 19-220); test: flow cytometry on Jurkat cells
T1 construct: whole, on cells; also called huCD28
Method: (§1) Cells were harvested, checked for viability, and counted. 200'000 cells were incubated for 15 minutes at 4° C. with increasing concentrations of the antibodies diluted in FACS buffer (PBS 2% BSA). Cells were washed twice with cold FACS buffer and re-incubated for further 15 minutes at 4° C. with a suitable anti-human IgG secondary antibody. Cells were washed twice with cold FACS buffer and resuspended in 150 μl FACS buffer with a compatible viability marker. Binding of antibodies to living cells was measured by flow cytometry using a Cytoflex Platform (Beckman Coulter). Data was analyzed with FlowJo™ v10 software (BD Life Sciences) and dose-response binding curves were drawn using GraphPad Prism 9 software. AD84 GPC3 arm of the GPC3×CD3 bispecific antibody and P44, P30, P111 GPC3 arms of the GPC3×CD28 bispecific antibodies of this invention were selected from this screening process based on their specificity and binding signal intensity to GPC3 positive cells.
Examples of cells that can be used include GPC3 positive cell lines such as the gastric carcinoma cell line FU97 (JCRB1074), CD28 positive cell lines such as the leukemic Jurkat T cells as well as GPC3/CD28 double negative cell line, such as the leukemic TIB-153 cells. Cell staining and binding assessment was performed as described in Example 6. An irrelevant hIgG1 mAb served as negative isotype control and was used in all shown experiments for comparison. Binding data on FU97 cells (FIG. 2A) emphasizes the range of binding affinities for huGPC3 of the selected anti-GPC3 arms of the invention, P44 and P30. Both P44 and P30 arms are binding to membrane distal domains within GPC3. Binding on CD3 positive Jurkat cells highlight how these two CD28×GPC3 bispecific antibodies sharing the same anti-CD28 arm (e.g. AI3) bind similarly to CD28 positive cells (FIG. 2B).

[2] = target: T1, human CD28; test: flow cytometry, bivalent mAb on Jurkat cells
Method: as §1
The binding capacity of the anti-CD28 antibody arms of the invention, tested as bivalent mAbs, was assessed using Jurkat cells (Jurkat Clone E6-1, ATCC TIB 152) by flow cytometry. The flow cytometry methodology was the same as the one described above. AI3 and AI10 CD28 binding arms were selected from this screening process based on their specificity and binding signal intensity to CD28 positive cells.

T1 sequence (P10747 19-220): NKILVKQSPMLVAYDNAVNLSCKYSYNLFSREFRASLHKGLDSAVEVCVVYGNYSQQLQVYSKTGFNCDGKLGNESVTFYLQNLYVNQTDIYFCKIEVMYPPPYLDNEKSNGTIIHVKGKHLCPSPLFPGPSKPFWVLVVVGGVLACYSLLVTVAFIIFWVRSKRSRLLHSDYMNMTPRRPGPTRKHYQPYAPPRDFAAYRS

binding result [1]	binding result [2]	Binder
–	binds	AI10 anti-CD28 bivalent mAb (antibody, V domains shown) VH: not shown VL: DIVMTQTPLSLSVTPGQPASISCKSSGDLLEFAGKTYLYWYLQKPGQPPQLLIYEVSNRFSGVPDRFSGSGSGTDFTLKISRVEAEDVGVYYCMQAHGSKIGFTFGQGTKVEIK
binds	–	AI3P30/N (bispecific antibody, human IgG1, kappa, lambda, L234A L235A, also called GPC3×CD28 bispecific antibody) heavy: not shown light 1: not shown light 2: QSALTQPASVSGSPGQSITISCTGTSSDVPEDALVSWYQQHPGKAPKLMIYYDSTRPSGVSNRFSGSKSGNTASLTISGLQAEDEADYYCSSWDFGTGSKVFGGGTKLTVLGQPKAAPSVTLFPPSSEELQANKATLVCLISDFYPGAVTVAWKADSSPVKAGVETTTPSKQSNNKYAASSYLSLTPEQWKSHRSYSCQVTHEGSTVEKTVAPTECS

Continued, binder first:

Binder	binding result [1]	binding result [2]
AI3P44/N (bispecific antibody, human IgG1, kappa, lambda, L234A L235A, also called GPC3×CD28 bispecific antibody; GPC3×CD28 κλ-body) heavy: not shown light 1: not shown light 2: NFMLTQPHSVSESPGKTVTISCTRSSGSISYDDVQWYQQRPGSSPTTVIYFNNLRPSGVPDRFSGSIDSSSNSASLTISGLKTEDEADYYCQSWDLRHRVFGGGTKLTVLGQPKAAPSVTLFPPSSEELQANKATLVCLISDFYPGAVTVAWKADSSPVKAGVETTTPSKQSNNKYAASSYLSLTPEQWKSHRSYSCQVTHEGSTVEKTVAPTECS	binds	–
AI10P44/N (bispecific antibody, human IgG1, kappa, lambda, L234A L235A, also called AI10-containing bispecific antibody; GPC3×CD28 bispecific antibody) heavy: not shown light 1: DIVMTQTPLSLSVTPGQPASISCKSSGDLLEFAGKTYLYWYLQKPGQPPQLLIYEVSNRFSGVPDRFSGSGSGTDFTLKISRVEAEDVGVYYCMQAHGSKIGFTFGQGTKVEIKRTVAAPSVFIFPPSDEQLKSGTASVVCLLNNFYPREAKVQWKVDNALQSGNSQESVTEQDSKDSTYSLSSTLTLSKADYEKHKVYACEVTHQGLSSPVTKSFNRGEC light 2: NFMLTQPHSVSESPGKTVTISCTRSSGSISYDDVQWYQQRPGSSPTTVIYFNNLRPSGVPDRFSGSIDSSSNSASLTISGLKTEDEADYYCQSWDLRHRVFGGGTKLTVLGQPKAAPSVTLFPPSSEELQANKATLVCLISDFYPGAVTVAWKADSSPVKAGVETTTPSKQSNNKYAASSYLSLTPEQWKSHRSYSCQVTHEGSTVEKTVAPTECS	binds	–
